Source: patent publication US20220040297A1 (Chugai, published 2022)
Where a chain is given by its changes, count along the chain named. Names may count otherwise.

B1: CE115HA000 D101Q (antibody, name in Kabat numbering, V domains shown)
VH: QVQLVESGGGVVQPGRSLRLSCAASGFTFSNAWMHWVRQAPGKGLEWVAQIKAKSNNYATYYAESVKGRFTISRDDSKNSLYLQMNSLKTEDTAVYYCRYVHYGAYYGVQAWGQGTTVTVSS
VL: DIVMTQSPLSLPVTPGEPASISCRSSQSLVHSNRNTYLHWYQQKPGQAPRLLIYKVSNRFSGVPDRFSGSGSGTDFTLKISRVEAEDVGVYYCGQGTQVPYTFGQGTKLEIK
B2: CE115HA000 H96K (antibody, name in Kabat numbering, V domains shown)
VH: B1 VH with H102K, Q110D
VL: B1 VL
B3: CE115HA000 H35Q (antibody, name in Kabat numbering, V domains shown)
VH: B1 VH with H35Q, Q110D
VL: B1 VL
B4: CE115HA000 H35M (antibody, name in Kabat numbering, V domains shown)
VH: B1 VH with H35M, Q110D
VL: B1 VL
B5: CE115HA000 I51E (antibody, name in Kabat numbering, V domains shown)
VH: B1 VH with I51E, Q110D
VL: B1 VL
B6: CE115HA000 E61P (antibody, name in Kabat numbering, V domains shown)
VH: B1 VH with E64P, Q110D
VL: B1 VL
B7: CE115HA000 D101Y (antibody, name in Kabat numbering, V domains shown)
VH: B1 VH with Q110Y
VL: B1 VL
B8: CE115HA000 E61D (antibody, name in Kabat numbering, V domains shown)
VH: B1 VH with E64D, Q110D
VL: B1 VL
B9: CE115HA000 E61Q (antibody, name in Kabat numbering, V domains shown)
VH: B1 VH with E64Q, Q110D
VL: B1 VL
B10: CE115HA000 H96Q (antibody, name in Kabat numbering, V domains shown)
VH: B1 VH with H102Q, Q110D
VL: B1 VL
B11: CE115HA000 H96Y (antibody, name in Kabat numbering, V domains shown)
VH: B1 VH with H102Y, Q110D
VL: B1 VL
B12: CE115HA000 D101T (antibody, name in Kabat numbering, V domains shown)
VH: B1 VH with Q110T
VL: B1 VL
B13: CE115HA000 I51D (antibody, name in Kabat numbering, V domains shown)
VH: B1 VH with I51D, Q110D
VL: B1 VL
B14: CE115HA000 G98A (antibody, name in Kabat numbering, V domains shown)
VH: B1 VH with G104A, Q110D
VL: B1 VL
B15: CE115HA000 G98F (antibody, name in Kabat numbering, V domains shown)
VH: B1 VH with G104F, Q110D
VL: B1 VL
B16: CE115HA000 G100bE (antibody, name in Kabat numbering, V domains shown)
VH: B1 VH with G108E, Q110D
VL: B1 VL
B17: CE115HA000 H35K (antibody, name in Kabat numbering, V domains shown)
VH: B1 VH with H35K, Q110D
VL: B1 VL
B18: CE115HA000 H35F (antibody, name in Kabat numbering, V domains shown)
VH: B1 VH with H35F, Q110D
VL: B1 VL
B19: CE115HA000 H35W (antibody, name in Kabat numbering, V domains shown)
VH: B1 VH with H35W, Q110D
VL: B1 VL
B20: CE115HA000 H35G (antibody, name in Kabat numbering, V domains shown)
VH: B1 VH with H35G, Q110D
VL: B1 VL
B21: CE115HA000 H35R (antibody, name in Kabat numbering, V domains shown)
VH: B1 VH with H35R, Q110D
VL: B1 VL
B22: CE115HA000 G98T (antibody, name in Kabat numbering, V domains shown)
VH: B1 VH with G104T, Q110D
VL: B1 VL
B23: CE115HA000 H35T (antibody, name in Kabat numbering, V domains shown)
VH: B1 VH with H35T, Q110D
VL: B1 VL
B24: CE115HA000 K43E (antibody, name in Kabat numbering, V domains shown)
VH: B1 VH with K43E, Q110D
VL: B1 VL
B25: CE115HA000 E61A (antibody, name in Kabat numbering, V domains shown)
VH: B1 VH with E64A, Q110D
VL: B1 VL
B26: CE115HA000 G98Q (antibody, name in Kabat numbering, V domains shown)
VH: B1 VH with G104Q, Q110D
VL: B1 VL
B27: CE115HA000 G100bY (antibody, name in Kabat numbering, V domains shown)
VH: B1 VH with G108Y, Q110D
VL: B1 VL
B28: CE115HA000 H35V (antibody, name in Kabat numbering, V domains shown)
VH: B1 VH with H35V, Q110D
VL: B1 VL
B29: CE115HA000 G98D (antibody, name in Kabat numbering, V domains shown)
VH: B1 VH with G104D, Q110D
VL: B1 VL
B30: CE115HA000 G65D (antibody, name in Kabat numbering, V domains shown)
VH: B1 VH with G68D, Q110D
VL: B1 VL
B31: CE115HA000 D101V (antibody, name in Kabat numbering, V domains shown)
VH: B1 VH with Q110V
VL: B1 VL
B32: CE115HA000 H35I (antibody, name in Kabat numbering, V domains shown)
VH: B1 VH with H35I, Q110D
VL: B1 VL
B33: CE115HA000 H96P (antibody, name in Kabat numbering, V domains shown)
VH: B1 VH with H102P, Q110D
VL: B1 VL
B34: CE115HA000 H35N (antibody, name in Kabat numbering, V domains shown)
VH: B1 VH with H35N, Q110D
VL: B1 VL
B35: CE115HA000 G98P (antibody, name in Kabat numbering, V domains shown)
VH: B1 VH with G104P, Q110D
VL: B1 VL
B36: CE115HA000 G65E (antibody, name in Kabat numbering, V domains shown)
VH: B1 VH with G68E, Q110D
VL: B1 VL
B37: CE115HA000 G98Y (antibody, name in Kabat numbering, V domains shown)
VH: B1 VH with G104Y, Q110D
VL: B1 VL
B38: CE115HA000 H35D (antibody, name in Kabat numbering, V domains shown)
VH: B1 VH with H35D, Q110D
VL: B1 VL
B39: CE115HA000 G100bF (antibody, name in Kabat numbering, V domains shown)
VH: B1 VH with G108F, Q110D
VL: B1 VL
B40: CE115HA000 H35L (antibody, name in Kabat numbering, V domains shown)
VH: B1 VH with H35L, Q110D
VL: B1 VL
B41: CE115HA000 H35Y (antibody, name in Kabat numbering, V domains shown)
VH: B1 VH with H35Y, Q110D
VL: B1 VL
B42: CE115HA000 G98H (antibody, name in Kabat numbering, V domains shown)
VH: B1 VH with G104H, Q110D
VL: B1 VL
B43: CE115HA000 G100bS (antibody, name in Kabat numbering, V domains shown)
VH: B1 VH with G108S, Q110D
VL: B1 VL
B44: CE115HA000 H35S (antibody, name in Kabat numbering, V domains shown)
VH: B1 VH with H35S, Q110D
VL: B1 VL
B45: CE115HA000 G100bI (antibody, name in Kabat numbering, V domains shown)
VH: B1 VH with G108I, Q110D
VL: B1 VL

Molecular target: T1, CD3ε homodimer protein (human, UniProt P07766 23-126, limits assumed, sulfo-tag or biotin label in some ECL assays)
T1 construct: also called human CD3ε homodimer protein; CD3 (CD3ε)
Experiment: SPR, CD3ε homodimer on chip;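 also: biacore SPR with antibody variants flowed as analyte over amine-coupled CD3ε homodimer on a CM chip, bound amount of each single-residue H chain variant over that of parent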

T1 sequence (P07766 23-126 limits assumed): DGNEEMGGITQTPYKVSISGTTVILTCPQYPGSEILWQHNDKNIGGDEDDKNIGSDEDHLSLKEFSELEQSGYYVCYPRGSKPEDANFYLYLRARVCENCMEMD

Binder	ratio of amounts bound vs CE115HA000
B1	2.25
B2	0.35
B3	0.13
B4	0.29
B5	0.55
B6	1.07
B7	6.49
B8	0.91
B9	1.07
B10	0.42
B11	0.17
B12	0.79
B13	0.29
B14	1.1
B15	1.58
B16	0.36
B17	0.15
B18	0.21
B19	0.22
B20	0.22
B21	0.14
B22	1
B23	0.26

Binder	ratio of amounts bound vs CE115HA000
B24	0.9
B25	1.09
B26	1.23
B27	0.23
B28	0.22
B29	0.26
B30	0.76
B31	1.33
B32	0.12
B33	0.12
B34	0.35
B35	1.03
B36	0.78
B37	2.22
B38	0.2
B39	0.3
B40	0.11
B41	0.16
B42	2.83
B43	0.52
B44	0.23
B45	0.37
